Source: the supplement of paper PMC11246515
± gives the standard deviation of the averaged measurements.

Test: total protein half-life in vivo (active degradation + dilution); higher = more stable protein
[1] = wild type E. coli NCM3722, growth: C-lim chemostat, doubling time 3 h
[2] = wild type E. coli NCM3722, growth: C-lim chemostat, doubling time 6 h
[3] = wild type E. coli NCM3722, growth: C-lim chemostat, doubling time 12 h
[4] = E. coli NCM3722 delta-clpP delta-lon delta-hslV, growth: N-lim chemostat, doubling time 6 h
[5] = E. coli NCM3722 delta-clpP, growth: N-lim chemostat, doubling time 6 h
[6] = E. coli NCM3722 delta-hslV, growth: N-lim chemostat, doubling time 6 h
[7] = E. coli NCM3722 delta-lon, growth: N-lim chemostat, doubling time 6 h
[8] = E. coli NCM3722 delta-smpB, growth: N-lim chemostat, doubling time 6 h
[9] = wild type E. coli NCM3722, growth: N-lim chemostat, doubling time 6 h
[10] = wild type E. coli NCM3722, growth: N-lim chemostat, doubling time 12 h
[11] = wild type E. coli NCM3722, growth: P-lim chemostat, doubling time 6 h
[12] = wild type E. coli NCM3722, growth: P-lim chemostat, doubling time 12 h

| Sequence | total protein half-life in vivo [1] [h] | total protein half-life in vivo [2] [h] | total protein half-life in vivo [3] [h] | total protein half-life in vivo [4] [h] | total protein half-life in vivo [5] [h] | total protein half-life in vivo [6] [h] | total protein half-life in vivo [7] [h] | total protein half-life in vivo [8] [h] | total protein half-life in vivo [9] [h] | total protein half-life in vivo [10] [h] | total protein half-life in vivo [11] [h] | total protein half-life in vivo [12] [h] |
| --- | --- | --- | --- | --- | --- | --- | --- | --- | --- | --- | --- | --- |
| MITIPITLRMLIAKYLCLLKPFWLRKNNKTSVLLIIIILAMILGVVKIQVWLNDWNNDFFNALSQKETDKLWQLVLWFPALLGIFVLISVNKTWLIKLLTIRWREWLTDYYLNRWFADKNYYFTQIYGEHKNTDNPDQRIAEDILLLISKTLSLSFGFIQSLSMLITFTVILWESAGTLSFTVGGTEWNIQGYMVYTVVLIVIGGTLFTHKVGKRIRPLNVEKQRSEATFRTNLVQHNKQAELIALSNAESLQRQELSDNFHTIKENWHRLMNRQRWLDYWQNIYSRSLSVLPYFLLLPQFISGQINLGGLMKSRQAFMLVSNNLSWFIYKYDELAELAAVIDRLYEFHQLTEQRPTNKPKNCQHAVQVADASIRTPDNKIILENLNFHVSPGKWLLLKGYSGAGKTTLLKTLSHCWPWFKGDISSPADSWYVSQTPLIKTGLLKEIICKALPLPVDDKSLSEVLHQVGLGKLAARIHDHDRWGDILSSGEKQRIALARLILRRPKWIFLDETTSHLEEQEAIRLLRLVREKLPTSGVIMVTHQPGVWNLADDICDISAVL | 3.2 ± 0.6 | 5.29 ± 0.53 | 11.5 ± 1.1 |  |  |  |  |  |  |  |  |  |
| MITRIPRSSFSANINNTAQTNEHQTLSELFYKELEDKFSGKELATPLLKSFSENCRQNGRHIFSNKDFVIKFSTSVLQADKKEITIINKNENTTLTQTIAPIFEKYLMEILPQRSDTLDKQELNLKSDRKEKEFPRIKLNGQCYFPGRPQNRIVCRHIAAQYINDIYQNVDYKPHQDDYSSAEKFLTHFNKKCKNQTLALVSSRPEGRCVAACGDFGLVMKAYFDKMESNGISVMAAILLVDNHALTVRLRIKNTTEGCTHYVVSVYDPNVTNDKIRIMSESKENIKHYSLMDFMNVDYSLLKWSNDHVINQSVAIIPALPKEQLLMLKGSVDEITPPLSPATMNLLMAIGQNHQLTQLMIQLQKMPELHRTEMLTAYNSINLPGLYLAINYGNADIVETIFNSLSETGYEGLLSKKNLMHILEAKDKNGFSGLFLAISRKDKNVVTSILNALPKLAATHHLDNEQVYKFLSAKNRTSSHVLYHVMANGDADMLKIVLNALPLLIRTCHLTKEQVLDLLKAKDFYGCPGLYLAMQNGHSDIVKVILEALPSLAQEINISASDIVDLLTAKSLARDTGLFMAMQRGHMNVINTIFNALPTLFNTFKFDKKNMKPLLLANNSNEYPGLFSAIQHKQQNVVETVYLALSDHARLFGFTAEDIMDFWQHKAPQKYSAFELAFEFGHRVIAELILNTLNKMAESFGFTDNPRYIAEKNYMEALLKKASPHTVR |  | 5.49 |  |  |  |  |  |  |  |  |  |  |
| MITYHDAFAKANHYLDDADLPVVITLHGRFSQGWYFCFEAREFLETGDEAARLAGNAPFIIDKDSGEIHSLGTAKPLEEYLQDYEIKKATFGLP |  |  |  | 4.62 ± 0.3 |  |  |  |  |  |  |  |  |
| MIVKKLTLPKDFLWGGAVAAHQVEGGWNKGGKGPSICDVLTGGAHGVPREITKEVLPGKYYPNHEAVDFYGHYKEDIKLFAEMGFKCFRTSIAWTRIFPKGDEAQPNEEGLKFYDDMFDELLKYNIEPVITLSHFEMPLHLVQQYGSWTNRKVVDFFVRFAEVVFERYKHKVKYWMTFNEINNQRNWRAPLFGYCCSGVVYTEHENPEETMYQVLHHQFVASALAVKAARRINPEMKVGCMLAMVPLYPYSCNPDDVMFAQESMRERYVFTDVQLRGYYPSYVLNEWERRGFNIKMEDGDLDVLREGTCDYLGFSYYMTNAVKAEGGTGDAISGFEGSVPNPYVKASDWGWQIDPVGLRYALCELYERYQRPLFIVENGFGAYDKVEEDGSINDDYRIDYLRAHIEEMKKAVTYDGVDLMGYTPWGCIDCVSFTTGQYSKRYGFIYVNKHDDGTGDMSRSRKKSFNWYKEVIASNGEKL | 3.08 ± 0.12 | 5.89 ± 0.32 | 10.03 ± 0.031 | 5.79 ± 0.69 | 5.12 ± 0.34 | 5.44 ± 0.26 | 5.46 ± 0.0062 | 4.985 ± 0.0067 | 4.85 ± 0.075 | 9.46 ± 0.4 | 6.17 ± 0.47 | 11.1 ± 0.41 |
| MIVLPRRLSDEVADRVRALIDEKNLEAGMKLPAERQLAMQLGVSRNSLREALAKLVSEGVLLSRRGGGTFIRWRHDTWSEQNIVQPLKTLMADDPDYSFDILEARYAIEASTAWHAAMRATPGDKEKIQLCFEATLSEDPDIASQADVRFHLAIAEASHNIVLLQTMRGFFDVLQSSVKHSRQRMYLVPPVFSQLTEQHQAVIDAIFAGDADGARKAMMAHLSFVHTTMKRFDEDQARHARITRLPGEHNEHSREKNA [P0ACL7] | 1.28 | 2.86 ± 0.55 | 2.72 | 5.57 | 2.72 |  |  | 2.04 |  | 2.87 |  |  |
| MIVRILLLFIALFTFGVQAQAIKESYAFAVLGEPRYAFNFNHFDYVNPAAPKGGQITLSALGTFDNFNRYALRGNPGARTEQLYDTLFTTSDDEPGSYYPLIAESARYADDYSWVEVAINPRARFHDGSPITARDVEFTFQKFMTEGVPQFRLVYKGTTVKAIAPLTVRIELAKPGKEDMLSLFSLPVFPEKYWKDHKLSDPLATPPLASGPYRVTSWKMGQNIVYSRVKDYWAANLPVNRGRWNFDTIRYDYYLDDNVAFEAFKAGAFDLRMENDAKNWATRYTGKNFDKKYIIKDEQKNESAQDTRWLAFNIQRPVFSDRRVREAITLAFDFEWMNKALFYNAWSRTNSYFQNTEYAARNYPDAAELVLLAPMKKDLPSEVFTQIYQPPVSKGDGYDRDNLLKADKLLNEAGWVLKGQQRVNATTGQPLSFELLLPASSNSQWVLPFQHSLQRLGINMDIRKVDNSQITNRMRSRDYDMMPRVWRAMPWPSSDLQISWSSEYINSTYNAPGVQSPVIDSLINQIIAAQGNKEKLLPLGRALDRVLTWNYYMLPMWYMAEDRLAWWDKFSQPAVRPIYSLGIDTWWYDVNKAAKLPSASKQGE | 3.0824 ± 5.7e-05 | 6.076 ± 0.038 | 13.3 ± 2.8 | 6.04 ± 0.17 | 6.38 ± 1.6 | 5.79 ± 0.79 |  | 5.92 ± 0.24 | 6.19 ± 0.39 | 12.8 ± 0.89 | 6.46 ± 0.14 | 12 ± 1.5 |
| MIVRPQQHWLRRIFVWHGSVLSKISSRLLLNFLFSIAVIFMLPWYTHLGIKFTLAPFSILGVAIAIFLGFRNNAGYARYVEARKLWGQLMIASRSLLREVKTTLPDSASVREFARLQIAFAHCLRMTLRKQPQAEVLAHYLKTEDLQRVLASNSPANRILLIMGEWLAVQRRNGQLSDILFISLNDRLNDISAVLAGCERIAYTPIPFAYTLILHRTVYLFCIMLPFALVVDLHYMTPFISVLISYTFISLDCLAEELEDPFGTENNDLPLDAICNAIEIDLLQMNDEAEIPAKILPDRHYQLT |  |  |  | 6.05 | 5.43 | 5.52 |  |  | 3.6 | 8.65 | 5.86 ± 0.6 | 11.5 ± 0.23 |
| MIWKRHLTLDELNATSDNTMVAHLGIVYTRLGDDVLEAEMPVDTRTHQPFGLLHGGASAALAETLGSMAGFMMTRDGQCVVGTELNATHHRPVSEGKVRGVCQPLHLGRQNQSWEIVVFDEQGRRCCTCRLGTAVLG [P0A8Y8] |  |  |  | 6.69 |  |  |  |  |  |  |  |  |
| MIWKRKITLEALNAMGEGNMVGFLDIRFEHIGDDTLEATMPVDSRTKQPFGLLHGGASVVLAESIGSVAGYLCTEGEQKVVGLEINANHVRSAREGRVRGVCKPLHLGSRHQVWQIEIFDEKGRLCCSSRLTTAIL | 2.75 ± 0.11 |  |  | 4.78 | 3.39 | 4.22 | 4.14 | 3.73 ± 0.23 | 4.23 | 9.08 ± 3.8 | 6.54 | 10.7 |
| MIYLRKANERGHANHGWLDSWHTFSFANYYDPNFMGFSALRVINDDVIEAGQGFGTHPHKDMEILTYVLEGTVEHQDSMGNKEQVPAGEFQIMSAGTGIRHSEYNPSSTERLHLYQIWIMPEENGITPRYEQRRFDAVQGKQLVLSPDARDGSLKVHQDMELYRWALLKDEQSVHQIAAERRVWIQVVKGNVTINGVKASTSDGLAIWDEQAISIHADSDSEVLLFDLPPV | 2.84 ± 0.096 | 5.31 ± 0.29 | 8.6 ± 2.5 |  | 4.3 ± 0.072 | 4.52 ± 0.68 | 4.67 ± 0.054 | 4.36 ± 0.26 | 4.51 ± 0.2 | 7.3 ± 0.36 | 5.54 ± 0.17 | 11.6 ± 0.069 |
| MKAAAKTQKPKRQEEHANFISWRFALLCGCILLALAFLLGRVAWLQVISPDMLVKEGDMRSLRVQQVSTSRGMITDRSGRPLAVSVPVKAIWADPKEVHDAGGISVGDRWKALANALNIPLDQLSARINANPKGRFIYLARQVNPDMADYIKKLKLPGIHLREESRRYYPSGEVTAHLIGFTNVDSQGIEGVEKSFDKWLTGQPGERIVRKDRYGRVIEDISSTDSQAAHNLALSIDERLQALVYRELNNAVAFNKAESGSAVLVDVNTGEVLAMANSPSYNPNNLSGTPKEAMRNRTITDVFEPGSTVKPMVVMTALQRGVVRENSVLNTIPYRINGHEIKDVARYSELTLTGVLQKSSNVGVSKLALAMPSSALVDTYSRFGLGKATNLGLVGERSGLYPQKQRWSDIERATFSFGYGLMVTPLQLARVYATIGSYGIYRPLSITKVDPPVPGERVFPESIVRTVVHMMESVALPGGGGVKAAIKGYRIAIKTGTAKKVGPDGRYINKYIAYTAGVAPASQPRFALVVVINDPQAGKYYGGAVSAPVFGAIMGGVLRTMNIEPDALTTGDKNEFVINQGEGTGGRS [P0AD68] | 1.75 ± 0.11 | 2.35 ± 0.13 | 2.75 ± 0.35 | 2.8 ± 0.043 | 2.39 ± 0.032 | 2.53 ± 0.39 | 2.31 ± 0.099 | 2.77 ± 0.059 | 2.61 ± 0.035 | 3.15 ± 0.18 | 3.311 ± 0.027 | 4.83 ± 0.71 |
